Reference: PMC9722645 (Structure (London, England : 1993), 2022)
Each block holds one molecule with its values, some of them ahead of it. Non-standard residues stand in square brackets, D forms with d. pY = N[C@@H](Cc1ccc(OP(=O)(O)O)cc1)C(=O)O

What was measured:
[1] = molecular target: p190RhoGAP pY1105 peptide (Homo sapiens) (UniProt Q9NRY4); assay: ITC; settings: cited from earlier work
[2] = molecular target: p190RhoGAP pY1087 peptide (Homo sapiens) (UniProt Q9NRY4); assay: ITC; settings: cited from earlier work
Ras = settings: ref [3],[4]; cited from earlier work
[3] = molecular target: T1, p120RasGAP SH2-SH3-SH2 region (residues 174–444) (human, UniProt P20936 174-444, C236S | C261S | C372S | C402S); assay: ITC
T1 sequence (looked up): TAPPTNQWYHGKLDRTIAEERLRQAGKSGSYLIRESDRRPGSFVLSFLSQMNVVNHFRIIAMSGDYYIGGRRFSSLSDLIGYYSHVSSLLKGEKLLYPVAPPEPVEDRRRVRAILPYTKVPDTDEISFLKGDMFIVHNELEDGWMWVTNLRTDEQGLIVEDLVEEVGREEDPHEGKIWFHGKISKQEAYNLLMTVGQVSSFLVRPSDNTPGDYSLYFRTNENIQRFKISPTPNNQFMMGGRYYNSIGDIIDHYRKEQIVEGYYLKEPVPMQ

p190RhoGAP pY1087 peptide (Homo sapiens), sequence (Q9NRY4 whole entry): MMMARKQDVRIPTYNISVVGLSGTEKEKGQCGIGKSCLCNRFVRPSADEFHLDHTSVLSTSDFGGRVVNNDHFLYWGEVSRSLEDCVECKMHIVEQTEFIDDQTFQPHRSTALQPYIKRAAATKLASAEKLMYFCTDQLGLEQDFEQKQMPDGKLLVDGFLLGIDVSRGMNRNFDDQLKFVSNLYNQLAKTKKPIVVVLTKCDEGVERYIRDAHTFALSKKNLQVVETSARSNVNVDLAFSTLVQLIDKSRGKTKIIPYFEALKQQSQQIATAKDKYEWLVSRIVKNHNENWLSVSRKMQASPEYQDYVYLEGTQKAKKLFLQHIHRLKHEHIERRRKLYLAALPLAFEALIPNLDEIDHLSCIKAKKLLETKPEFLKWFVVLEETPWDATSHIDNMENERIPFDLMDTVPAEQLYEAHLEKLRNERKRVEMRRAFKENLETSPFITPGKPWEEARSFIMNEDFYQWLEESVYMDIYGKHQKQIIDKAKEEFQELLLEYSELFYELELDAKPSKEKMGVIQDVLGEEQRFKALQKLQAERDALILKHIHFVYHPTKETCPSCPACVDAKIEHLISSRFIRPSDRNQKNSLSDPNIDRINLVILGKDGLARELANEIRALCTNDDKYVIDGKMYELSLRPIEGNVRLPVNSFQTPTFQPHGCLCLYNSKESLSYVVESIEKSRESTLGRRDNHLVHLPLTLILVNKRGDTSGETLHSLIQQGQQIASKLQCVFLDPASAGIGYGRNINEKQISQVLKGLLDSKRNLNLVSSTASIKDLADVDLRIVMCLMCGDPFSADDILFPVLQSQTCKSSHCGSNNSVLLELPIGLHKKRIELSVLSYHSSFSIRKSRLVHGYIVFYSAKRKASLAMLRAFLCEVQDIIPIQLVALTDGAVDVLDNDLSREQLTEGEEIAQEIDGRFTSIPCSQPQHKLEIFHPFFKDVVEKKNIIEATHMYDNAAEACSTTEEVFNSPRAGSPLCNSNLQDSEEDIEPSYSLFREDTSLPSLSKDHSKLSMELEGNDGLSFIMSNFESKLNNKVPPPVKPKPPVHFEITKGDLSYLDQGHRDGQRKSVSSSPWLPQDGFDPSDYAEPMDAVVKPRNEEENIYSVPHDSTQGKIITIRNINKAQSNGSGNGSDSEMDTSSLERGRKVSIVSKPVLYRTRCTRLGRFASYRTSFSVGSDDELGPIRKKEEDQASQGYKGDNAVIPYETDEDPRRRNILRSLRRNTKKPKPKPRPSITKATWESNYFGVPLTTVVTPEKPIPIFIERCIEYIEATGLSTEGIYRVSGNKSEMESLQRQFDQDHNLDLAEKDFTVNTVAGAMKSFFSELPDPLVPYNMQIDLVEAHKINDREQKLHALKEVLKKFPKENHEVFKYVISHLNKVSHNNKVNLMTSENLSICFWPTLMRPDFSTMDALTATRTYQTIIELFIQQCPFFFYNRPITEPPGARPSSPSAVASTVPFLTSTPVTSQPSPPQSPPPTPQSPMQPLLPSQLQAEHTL
p190RhoGAP pY1105 peptide (Homo sapiens), sequence (Q9NRY4 whole entry): as above

Molecule: p120RasGAP N-SH2 (from UniProt P20936)
Kd [1]: 300 nM

Molecule: p120RasGAP C-SH2 (from UniProt P20936)
Kd [2]: 150 nM

B1: p120RasGAP: key regulatory protein of the Ras subfamily of small guanine-nucleotide binding GTPases (protein)
chain: TAPPTNQWYHGKLDRTIAEERLRQAGKSGSYLIRESDRRPGSFVLSFLSQMNVVNHFRIIAMSGDYYIGGRRFSSLSDLIGYYSHVSSLLKGEKLLYPVAPPEPVEDRRRVRAILPYTKVPDTDEISFLKGDMFIVHNELEDGWMWVTNLRTDEQGLIVEDLVEEVGREEDPHEGKIWFHGKISKQEAYNLLMTVGQVSSFLVRPSDNTPGDYSLYFRTNENIQRFKISPTPNNQFMMGGRYYNSIGDIIDHYRKEQIVEGYYLKEPVPMQ
modifications: left off: His6, N-terminal, cleaved
enhancement of GTPase activity of Ras (Ras): two to five orders of magnitude

dH [3]: -31.1 kcal/mol
Molecule: Ac-DPSD[pY]AEPMDAVVKPRNEEENI[pY]SVPHDS-NH2 [doubly-phosphorylated p190RhoGAP-A peptide (residues 1083–1111, pY1087 and pY1105)]
